Patent US20160158332A1 (US Dept. of Health and Human Services, published 2016)
Ends that are not written are not given here.

Molecular target: T1, recombinant EcPyAMA1 (P. yoelii YM AMA1 residues 59-479 with a C-terminal histidine tag, E. coli, refolded) (Plasmodium yoelii YM)
T1 construct: not shown: C-terminal histidine tag
T1 chain: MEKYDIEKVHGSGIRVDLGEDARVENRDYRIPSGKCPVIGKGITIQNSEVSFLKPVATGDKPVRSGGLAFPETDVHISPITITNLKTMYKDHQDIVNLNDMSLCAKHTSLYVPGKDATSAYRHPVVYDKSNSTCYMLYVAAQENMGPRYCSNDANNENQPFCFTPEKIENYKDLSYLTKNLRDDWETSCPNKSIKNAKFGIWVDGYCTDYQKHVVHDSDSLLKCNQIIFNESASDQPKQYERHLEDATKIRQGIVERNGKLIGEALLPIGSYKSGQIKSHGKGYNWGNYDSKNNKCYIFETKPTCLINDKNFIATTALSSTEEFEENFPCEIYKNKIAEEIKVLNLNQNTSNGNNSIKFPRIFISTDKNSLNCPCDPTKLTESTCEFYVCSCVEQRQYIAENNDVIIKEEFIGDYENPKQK
Assay: binding of RON2L peptide to PyAMA1, FIG. 3E

B1: PyRON2L peptide with the two cysteines mutated to alanines (Cys 1856 and 1868 to Ala) (peptide)
peptide: DITQHATDIGMGPSTSAYTSLLPPPKSIAIQQTVKTVLTNSTLASMK-NH2
notes: they are the two cysteines of the peptide; also called RON2Lc/a; c/a
  binding result: no binding
